Source: publication PMC9672406 (The Journal of Biological Chemistry, 2022)

Molecular target: the molecule itself
Assay: AUC

B1: MqnA from Streptomyces coelicolor (chorismate dehydratase), wild type (enzyme)
chain: DNSRTRPRVGHIQFLNCLPLYWGLARTGTLLDFELTKDTPEKLSEQLVRGDLDIGPVTLVEFLKNADDLVAFPDIAVGCDGPVMSCVIVSQVPLDRLDGARVALGSTSRTSVRLAQLLLSERFGVQPDYYTCPPDLSLMMQEADAAVLIGDAALRANMIDGPRYGLDVHDLGALWKEWTGLPFVFAVWAARRDYAEREPVITRKVHEAFLASRNLSLEEVEKVAEQAARWEAFDEDTLAKYFTTLDFRFGAPQLEAVTEFARRVGPTTGFPADVKVELLKP
- stoichiometry N: 2
